Data taken from patent publication US6635743.

T1: TR6-(His), recombinant TR6 protein with hexa-histidine at the C-terminus (human, UniProt O95407 30-300)
T1 construct: also called DcR3; TR6 (DcR3)
T1 sequence: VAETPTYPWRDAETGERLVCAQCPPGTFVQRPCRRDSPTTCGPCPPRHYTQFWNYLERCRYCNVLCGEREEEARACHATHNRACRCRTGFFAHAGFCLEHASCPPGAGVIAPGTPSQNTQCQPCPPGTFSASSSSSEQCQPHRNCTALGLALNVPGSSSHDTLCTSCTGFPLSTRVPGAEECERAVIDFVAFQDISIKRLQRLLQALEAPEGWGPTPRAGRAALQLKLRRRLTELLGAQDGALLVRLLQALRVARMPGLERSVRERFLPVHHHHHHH

T2: DR4 (UniProt O00220 24-239, limits assumed)
T2 construct: also called TRAIL-R1; APO-2
T2 sequence (looked up): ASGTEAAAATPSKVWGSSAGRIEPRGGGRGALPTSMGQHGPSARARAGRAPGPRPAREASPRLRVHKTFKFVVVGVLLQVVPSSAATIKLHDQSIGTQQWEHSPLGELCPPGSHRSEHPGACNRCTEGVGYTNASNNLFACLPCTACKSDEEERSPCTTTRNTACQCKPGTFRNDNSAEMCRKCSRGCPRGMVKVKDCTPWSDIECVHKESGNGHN

T3: TNFRI (UniProt P19438 30-211, limits assumed)
T3 construct: also called TNFR1
T3 sequence (looked up): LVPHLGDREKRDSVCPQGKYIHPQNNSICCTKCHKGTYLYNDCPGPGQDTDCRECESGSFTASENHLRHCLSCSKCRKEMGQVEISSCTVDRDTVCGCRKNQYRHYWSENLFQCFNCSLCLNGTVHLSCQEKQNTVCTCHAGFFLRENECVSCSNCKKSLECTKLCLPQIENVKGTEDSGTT

T4: Fas (UniProt P25445 26-173, limits assumed)
T4 construct: also called CD95; APO-1
T4 sequence (looked up): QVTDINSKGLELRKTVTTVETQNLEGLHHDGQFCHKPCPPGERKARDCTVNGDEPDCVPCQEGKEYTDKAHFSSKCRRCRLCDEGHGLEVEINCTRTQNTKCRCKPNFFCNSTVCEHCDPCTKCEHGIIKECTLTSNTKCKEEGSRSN

T5: DR3 (UniProt Q93038 25-199, limits assumed)
T5 construct: also called TRAMP; APO-3
T5 sequence (looked up): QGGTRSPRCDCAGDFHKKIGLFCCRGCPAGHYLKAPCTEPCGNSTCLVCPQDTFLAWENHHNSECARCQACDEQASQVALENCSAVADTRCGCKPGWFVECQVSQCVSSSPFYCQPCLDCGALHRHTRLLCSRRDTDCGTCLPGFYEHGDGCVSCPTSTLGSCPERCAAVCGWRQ

T6: TR2 on the surface of MDA-MB-231 and HT-29 cells and of T cells (human, UniProt Q92956 39-283)
T6 construct: whole, on cells; The tumour cells carry both LTβR and TR2; also called HVEM; ATAR
T6 sequence (looked up): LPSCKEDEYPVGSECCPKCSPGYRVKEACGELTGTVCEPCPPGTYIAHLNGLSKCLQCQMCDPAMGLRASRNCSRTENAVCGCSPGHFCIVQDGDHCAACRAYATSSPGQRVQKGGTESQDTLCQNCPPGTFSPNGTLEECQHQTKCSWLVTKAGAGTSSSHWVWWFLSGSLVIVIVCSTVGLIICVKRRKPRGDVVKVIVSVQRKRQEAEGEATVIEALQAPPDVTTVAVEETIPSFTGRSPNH

B1: full-length AIM II (LIGHT) expressed on the cell surface (ligand)
chain: MEESVVRPSVFVVDGQTDIPFTRLGRSHRRQSCSVARVGLGLLLLLMGAGLAVQGWFLLQLHWRLGEMVTRLPDGPAGSWEQLIQERRSHEVNPAAHLTGANSSLTGSGGPLLWETQLGLAFLRGLSYHDGALVVTKAGYYYIYSKVQLGGVGCPLGLASTITHGLYKRTPRYPEELELLVSQQSPCGRATSSSRVWWDSSFLGGVVHLEAGEEVVVRVLDERLVRLRDGTRSYFGAFMV
B2: natural processed form of AIM II purified from conditioned media of MCA-38 cells transfected with full length AIM II cDNA (residues 83-240) (ligand)
chain: LIQERRSHEVNPAAHLTGANSSLTGSGGPLLWETQLGLAFLRGLSYHDGALVVTKAGYYYIYSKVQLGGVGCPLGLASTITHGLYKRTPRYPEELELLVSQQSPCGRATSSSRVWWDSSFLGGVVHLEAGEEVVVRVLDERLVRLRDGTRSYFGAFMV
notes: apparent mass about 21 kDa, said to be consistent with glycosylation; also called MCA-38 AIM II; AIM II (aa 83-240)
B3: lymphotoxin beta receptor (LTβR)-Fc fusion protein (Fc fusion, human, UniProt P36941 31-227, looked up)
chain: QAVPPYASENQTCRDQEKEYYEPQHRICCSRCPPGTYVSAKCSRIRDTVCATCAENSYNEHWNYLTICQLCRPCDPVMGLEEIAPCTSKRKTQCRCQPGMFCAAWALECTHCELLSDCPPGTEAELKDEVGKGNNHCVPCKAGHFQNTSSPSARCQPHTRCENQGLVEAAPGTAQSDTTCKNPLEPLPPEMSGTMLM
notes: extracellular domain; also called sLTβR-Fc; lymphotoxin-β receptor-Fc fusion protein; not shown: IgG1 Fc from vector pUC19-IgG1-Fc
B4: HVEM/TR2-Fc fusion protein (Fc fusion, UniProt Q92956 39-202, looked up)
chain: LPSCKEDEYPVGSECCPKCSPGYRVKEACGELTGTVCEPCPPGTYIAHLNGLSKCLQCQMCDPAMGLRASRNCSRTENAVCGCSPGHFCIVQDGDHCAACRAYATSSPGQRVQKGGTESQDTLCQNCPPGTFSPNGTLEECQHQTKCSWLVTKAGAGTSSSHWV
notes: not shown: Fc portion; detected with anti-human IgG
B5: Flag-tagged soluble AIM II protein (sAIM II), amino acids 74-240 of AIM II (ligand)
chain: DGPAGSWEQLIQERRSHEVNPAAHLTGANSSLTGSGGPLLWETQLGLAFLRGLSYHDGALVVTKAGYYYIYSKVQLGGVGCPLGLASTITHGLYKRTPRYPEELELLVSQQSPCGRATSSSRVWWDSSFLGGVVHLEAGEEVVVRVLDERLVRLRDGTRSYFGAFMV
notes: also called sLIGHT; AIM II-Flag; not shown: N-terminal FLAG peptide tag from vector pFLAG.CMV-1 (behind the preprotrypsin signal peptide)

Assays:
[1] = biological target: T1, TR6-(His), recombinant TR6 protein with …; assay: flow cytometry on AIM II (LIGHT)-transfected HEK 293 EBNA cells, anti-poly(His)6 and FITC anti-mouse IgG
Procedure: (§1) After selection with Hygromycin B, cells were harvested with 1 mM EDTA in PBS and incubated with TR6-(His), HVEM/TR2-Fc, or LTβR-Fc for 20 minutes on ice. For detecting Fc-fusion protein, cells were stained with FITC-conjugated goat anti-human IgG. To detect TR6 binding, cells were stained with anti-poly(His)_6 and FITC conjugated goat anti-mouse IgG consecutively. The cells were analyzed by FACScan (Becton Dickinson).
(§2) These bindings indicate that TR6 can bind to both soluble and membrane-bound forms of AIM II (LIGHT).

[2] = biological target: B3; assay: LTβR-Fc affinity column, eluate tested on LTβR BIAcore chip; band of about 21 kDa specifically bound to the column
Procedure: Conditioned media from the stable transfectants, CHO11 or MCA-38 cells, were filtered, centrifuged at 10,000×g and then passed over an MCIF-Fc affinity column (control column) followed by the LTβR-Fc affinity column (0.2 mL bed volume). The columns were washed with several bed column volumes HEPES buffered saline containing 0.005% Surfactant P-20. Bound protein was eluted with 10 mM HCl (3×0.5 ml fractions) and immediately neutralized with TRIS buffer. The fractions eluted from the LTβR column retained binding to LTβR BIAcore chip, whereas, fractions eluted from the control MCIF-Fc column were negative for binding. The eluted fractions were dried in Spedvac then resuspended in 20 μl water. An aliquot of the eluted protein was analyzed by reducing SDS-PAGE gels and detected by silver staining. A band of approximately ~25 kDa and ~21 kDa was detected specifically bound to the LTβR column from CHO-11 and MCA-38 cell lines. The remaining eluted material was subject to SDS-PAGE and blotted onto PVDF membrane for N-terminal sequence analysis.

[3] = biological target: T7, BAP-Flag (negative control) (UniProt P00634 22-471 = phosphatase); assay: BIAcore, LTβR-Fc immobilized, conditioned serum-free media of CHO cells
T7 construct: Tested as conditioned serum-free medium of transfected CHO cells
Procedure: (§3) CHO cells were transfected with either an AIM II-Flag tag expression vector or an BAP-Flag (negative control). Three days after transfection, AIM II expression was determined using the BIAcore instrument (BIAcore, Inc.) which permits real-time measurements of protein binding events to immobilized AIM II receptor, lymphotoxin-β receptor (BIAcore sensorgram detects binding by changes in refractive index at the surface of the flow cell). A lymphotoxin-β receptor-Fc fusion protein was covalently immobilized to the BIAcore flow cell via amine groups using N-ethyl-N'-(dimethylaminopropyl)carbodiimide/N-hydroxysuccinimide chemistry. Various dilutions of AIM II-Flag and the negative control (BAP-Flag) conditioned serum-free media were applied to the lymphotoxin-β-receptor-derivatized flow cell at 5 µl/min for a total volume of 50 µl. The amount of bound protein was determined after washing the flow cell with HBS buffer (10 mM HEPES, pH 7.4, 150 mM NaCl, 3.4 mM EDTA, 0.005% Surfactant P20). The flow cell surface was regenerated by displacing bound protein by washing with 20 µl of 10 mM HCl.

[4] = biological target: B1; assay: flow cytometry on AIM II (LIGHT)-transfected HEK 293 EBNA cells, FITC anti-human IgG
Procedure: as §1, §2

DR4 = biological target: T2, DR4; assay: in vitro binding assay, not described
DR5 = biological target: T8, DR5 (UniProt O14763 56-210, limits assumed); assay: in vitro binding assay, not described
T8 construct: also called TRAIL-R2

[5] = biological target: T1, TR6-(His), recombinant TR6 protein with …; assay: summary of the experiments of Example 13
TNFRI = biological target: T3, TNFRI; assay: 'in a similar assay'; format not described
Fas = biological target: T4, Fas; assay: 'in a similar assay'; format not described
DR3 = biological target: T5, DR3; assay: 'in a similar assay'; format not described
[6] = biological target: T9, LTβR on the surface of MDA-MB-231 and HT-29 cells (human, UniProt P36941 31-435); assay: summary of the FACS and cytotoxicity experiments
T9 construct: whole, on cells; The cells carry both LTβR and TR2; also called lymphotoxin β receptor
Procedure: (§4) FIGS. 8A–8M. Cell surface expression of the LTβR or TR2 by the FACS analyses using LTβR (FIGS. 8A–8D) or TR2 (FIGS. 8E–8H) mAb. […] FACS binding analyses of soluble AIM II protein alone (FIG. 8I) and blocking of a soluble AIM II protein binding by preincubation with the LTβR-Fc fusion protein (FIG. 8J) or TR2-Fc fusion protein (FIG. 8K) in MDA-MB-231 cells. FIG. 8L summarizes the surface expression of LTβR and TR2 in various cell lines. Effects of LTβR-Fc or TR2-Fc fusion protein to block the sAIM II-mediated cytotoxicity in HT-29 cells (FIG. 8M). […] Cells were incubated for five days and the viability of cells was determined by XTT assays.
(§5) A soluble tetrazolium/formazan (XTT) assay for cell growth in a 96-well plate was performed. Cells (2,000–4,000 cells/well) were grown in IMEM medium with 10% FBS or 1% FBS. After four to five days culture, XTT (1.0 mg/ml plus PMS at 1.53 mg/ml) was added to each well and incubated for four hours at 37° C. Absorbance at 450 nm was measured with the Dynatech Model MR700.
(§6) Cells were collected by trypsinization or aspiration, and centrifuged at 1500–2000 rpm for 5 min. The cell pellets were resuspended and washed in 5 ml ice-cold PBS twice. […] Fluorescence was analyzed by a FACscan flow cytometer (Becton Dickinson, Mountain View, Calif.).

[7] = biological target: T6, TR2 on the surface of MDA-MB-231 and …; assay: summary of the FACS and cytotoxicity experiments
Procedure: as §4, §5, §6

[8] = biological target: B4; assay: FACS competition, TR2-Fc at 10 µg/ml preincubated with sAIM II
Procedure: Cells were collected by trypsinization or aspiration, and centrifuged at 1500–2000 rpm for 5 min. The cell pellets were resuspended and washed in 5 ml ice-cold PBS twice. And then, the cells were incubated with Flag-tagged AIM II protein or Abs at 10 μg/ml in the binding buffer (HBSS containing 10% BSA, 20 mM HEPES, pH 7.2, 0.02% NaN₃, and 25 μg/ml normal rat Ig) for 30 min at 4° C. Cells were then washed and stained with phycoerythrin (PE) conjugated to goat anti-mouse IgG at 20 μg/ml as described. To compete for cell surface binding, soluble LTβR-Fc fusion protein, TR2-Fc at 10 μg/ml was preincubated with AIM II for 30 min before adding to cells. Fluorescence was analyzed by a FACscan flow cytometer (Becton Dickinson, Mountain View, Calif.).

[9] = biological target: B3; assay: BIAcore, LTβR-Fc immobilized by amine coupling, CHO conditioned serum-free media
Procedure: as §3

T7 sequence (P00634 22-471): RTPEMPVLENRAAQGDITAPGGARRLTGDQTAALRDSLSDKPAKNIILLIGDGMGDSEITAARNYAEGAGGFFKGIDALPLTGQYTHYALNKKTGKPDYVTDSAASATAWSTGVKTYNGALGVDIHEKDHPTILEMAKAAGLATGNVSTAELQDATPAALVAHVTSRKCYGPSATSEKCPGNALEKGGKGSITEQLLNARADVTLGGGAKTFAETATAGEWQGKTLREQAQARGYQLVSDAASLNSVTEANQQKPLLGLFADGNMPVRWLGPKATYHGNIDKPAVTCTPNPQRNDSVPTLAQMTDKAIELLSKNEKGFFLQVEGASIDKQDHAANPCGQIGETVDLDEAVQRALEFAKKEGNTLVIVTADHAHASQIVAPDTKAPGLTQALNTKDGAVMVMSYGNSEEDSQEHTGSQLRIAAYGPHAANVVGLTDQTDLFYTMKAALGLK

B1: binds [1].

B2: binds [2].

B3: no binding [3]; binds [4].

B4: binds [4].

B5: no binding (DR4); no binding (DR5); binds [5]. B5: no binding (TNFRI); no binding (Fas); no binding (DR3). B5: binds [6]; binds [7]; binds [8]. B5: binds [9].
